Source: patent US20040157314A1, “Inhibitors of Staphylococcus aureus primary sigma factor and uses thereof” (priority 2003, published 2004)

Assays:
[1] = molecular target: T1, reconstituted holoenzyme from HK-STAAU_R12 and S. aureus core enzyme (Staphylococcus aureus, UniProt P0A0J0); test: In vitro transcription and TCA precipitation assay, 96-well; assay type: biochemical; conditions: 10 μM, FIG. 8
T1 construct: made in house; S. aureus RN4220 transformed with pTMHB rpoA (core enzyme)
Description: In order to convert this gel-based transcription assay to a 96-well high through put format, we used an in vitro transcription assay followed by a TCA precipitation step in order to separate radiolabeled nucleotides incorporated into nucleic acid from unincorporated label. Such format is convenient as it will allow rapid screening with a large collection of compounds. In this TCA precipitation assay, we reconstituted the holoenzyme from STAAU_R12 and S. aureus core enzyme instead of using the E. coli core enzyme with STAAU_R12.
The E. coli core enzyme (Epicentre) was used as a positive control for monitoring transcription efficiency. The set up of high throughput screening assay for STAAU_R12 is illustrated in FIG. 7. […] UTP (3000 Ci/mmole), 1 U of RNasin (Promega) and 40 ng of pTMSM template DNA (a pTM derivative vector). To investigate the in vitroeffectofG1ORF67 on STAAU_R12 mediated transcriptional activation, G1ORF67 and a negative control (10 μM) were added to the mixture and the reaction was incubated for 1 h at 37° C. in a 96-well PCR-plate (BD-Falcon™). […] After filtration, the wells were washed 3 times (225 μl per wash) with 10% TCA, 2 times (225 μl per wash) with 95% ethanol and then 75 μl of liquid scintillation cocktail was added and the plates were counted for 30 s on a Trilux™ Microbeta counter (Perkin Elmer-Packard).

STAAU_R12 [2] = molecular target: T2, STAAU_R12 (Staphylococcus aureus, UniProt P0A0J0); test: Yeast two-hybrid analysis; assay type: cell-based; parameters: expressed in transfected cells; host or cells: yeast strain AH109 (Clontech); conditions: yeast AH109
T2 sequence (P0A0J0 whole entry, the tested form may be a part): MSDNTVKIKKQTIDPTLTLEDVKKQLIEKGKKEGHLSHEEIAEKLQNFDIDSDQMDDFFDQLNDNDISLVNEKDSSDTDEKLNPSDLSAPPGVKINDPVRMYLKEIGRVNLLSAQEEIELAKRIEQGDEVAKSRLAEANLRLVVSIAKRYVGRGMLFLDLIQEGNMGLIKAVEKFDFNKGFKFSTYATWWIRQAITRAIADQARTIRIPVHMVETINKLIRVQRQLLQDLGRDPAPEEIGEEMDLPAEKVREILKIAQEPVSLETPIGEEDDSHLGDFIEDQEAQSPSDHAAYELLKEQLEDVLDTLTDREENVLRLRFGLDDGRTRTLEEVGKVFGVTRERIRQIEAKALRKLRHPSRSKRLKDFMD
Description: To validate the interaction between G1ORF67 and STAAU_R12, we first performed yeast two-hybrid analyses with full length and deletions within both STAAU_R12 and G1ORF67. The inserts were cloned into pGADT7™ and pGBK™, the yeast vectors for two hybrid system studies (Clontech Laboratories) as fusions with the Gal4 activation domain (for pGADT7™) as well as with the Gal4 DNA-binding domain (for pGBK™). pGADT7 and pGBK recombinant plasmids bearing different combinations of constructs were introduced into a yeast strain (AH109, Clontech Laboratories), previously engineered to contain chromosomally-integrated copies of E. coli lacZand the selectable HIS3 and ADE2 genes. […]
To define the minimal region of STAAU_R12 conferring an interaction with G1ORF67, six deletions of STAAU_R12 were cloned into pGADT7 and introduced into AH109 yeast cells with the pGBK vector containing the full length sequence of G1ORF67. The resulting co-transformants were analyzed for their ability to induce expression of reporter genes.
To define the minimal region of G1ORF67 conferring an interaction with STAAU_R12, six deletions of G1ORF67 were cloned into pGADT7 and introduced into AH109 yeast cells with the pGBK vector containing the full length sequence of STAAU_R12. The resulting co-transformants were analyzed for their ability to induce expression of reporter genes required for viability on selective medium.

[3] = molecular target: STAAU_R12 full length fused to the Gal4 activation domain (p[…]_R12) (Staphylococcus aureus, UniProt P0A0I8 1-368); test: yeast two-hybrid, AH109
STAAU_R12 full length fused to the Gal4 activation domain (p[…]_R12), sequence (P0A0I8 whole entry, the tested form may be a part): as the sequence (P0A0J0 whole entry, the tested form may be a part) above

HK-STAAU_R12 [4] = molecular target: T3, HK-STAAU_R12 (Staphylococcus aureus, UniProt P0A0I8 1-368); test: TR-FRET, 32 nM of both GB-G1ORF67 and HK-STAAU_R12
T3 construct: not shown: N-terminal 6x histidine tag and heart muscle kinase (HMK) phosphorylation site of vector pH6K
T3 sequence (P0A0I8 whole entry): as the sequence (P0A0J0 whole entry, the tested form may be a part) above

STAAU_R12 [5] = molecular target: T2, STAAU_R12; test: Far Western analysis with 32P-labeled HK-STAAU_R12 probe; assay type: binding; parameters: made in house; host or cells: E. coli BL21; conditions: 100 ng to 2 μg immobilised protein, FIG. 4
Description: Radiolabeling of the proteins was done through the heart muscle phosphate acceptor site with the heart muscle kinase enzyme (HMK). The labeled probe was incubated with immobilized target protein, and the interaction was detected by exposure to X-ray film after extensive washes.
For radiolabeling with […], 10-15 μg of STAAU_R12 fused to 6× histidine and the HMK kinase acceptor domain (HK-STAAU_R12) were incubated with 50 units of the catalytic sub-unit of cAMP-dependent protein kinase (Heart Muscle Kinase; Sigma) in a total volume of 100 μl containing 20 mM Tris pH 7.5, 100 mM NaCl, 12 mM MgCl2, 1 mM DTT and 50 μCi of [γ^32P]-ATP (3000 Ci/mmole) (NEN/Mandel) for 30 min at room temperature. To remove free nucleotides, the protein was applied to a Sephadex-G50™ column and eluted with Z-buffer (25 mM Hepes pH 7.7, 12.5 mM MgCl2, 20% glycerol, 100 mM KCl & 1 mM DTT) and the incorporation of γ^32P-ATP was determined by counting in a liquid scintillation counter.
Increasing amounts (from 100 ng to 2 μg) of HB-G1ORF67 and as a negative control, 77ORF104 protein (2 μg) were used for Far-western analysis. Proteins were resolved by 15% SDS-PAGE and transferred onto a nitrocellulose membrane (Millipore). […]

HK-STAAU_R12 [6] = molecular target: T3, HK-STAAU_R12; test: TR-FRET competition, untagged G1ORF67 against 32 nM GB-G1ORF67 on 32 nM HK-STAAU_R12
[7] = molecular target: SV40 large T antigen (pGADT7-LargeT) (SV40, UniProt P03070 86-708); test: yeast two-hybrid, AH109
SV40 large T antigen (pGADT7-LargeT), sequence (P03070 86-708 limits assumed): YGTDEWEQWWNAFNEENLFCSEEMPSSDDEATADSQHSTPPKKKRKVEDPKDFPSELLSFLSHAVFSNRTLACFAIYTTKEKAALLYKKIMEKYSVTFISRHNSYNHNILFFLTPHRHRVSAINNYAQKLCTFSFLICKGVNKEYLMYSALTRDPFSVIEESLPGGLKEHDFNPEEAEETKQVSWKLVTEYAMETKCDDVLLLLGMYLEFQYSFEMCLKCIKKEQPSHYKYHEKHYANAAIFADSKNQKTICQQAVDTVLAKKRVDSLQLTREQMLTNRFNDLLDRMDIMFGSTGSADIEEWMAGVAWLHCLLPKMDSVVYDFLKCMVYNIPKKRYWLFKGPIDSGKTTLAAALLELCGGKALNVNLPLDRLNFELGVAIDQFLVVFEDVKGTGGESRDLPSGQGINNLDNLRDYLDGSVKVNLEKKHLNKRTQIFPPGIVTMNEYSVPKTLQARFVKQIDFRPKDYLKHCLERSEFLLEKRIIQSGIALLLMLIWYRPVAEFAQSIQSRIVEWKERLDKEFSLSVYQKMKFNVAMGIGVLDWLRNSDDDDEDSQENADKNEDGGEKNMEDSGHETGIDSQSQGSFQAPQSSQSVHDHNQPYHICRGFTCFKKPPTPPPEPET

T1 sequence (P0A0J0 whole entry): as the sequence (P0A0J0 whole entry, the tested form may be a part) above

In the case of “GST: glutathione-S-transferase protein used as a negative control [reference compound]”, the “inhibition of STAAU_R12 mediated transcriptional activation (TCA precipitation)” value [1] is reported as “did not show any inhibition”.

B1: G1ORF67—50—198: 149 amino acid fragment of G1ORF67, amino acids residues 50 to 198 (SEQ ID NO: 8) (protein)
chain: NGEYLELKRLRSTLPSSYGLDDNNQDIIRDNNHRCKIGYWYNPAVRKDNLKIIEKAKQYGLPIITEEYDANTVEQGFRDIGVIFQSLKTIVVTRYLEGKTEEELRIFNMKSEESQLNEALKESDFSVDLTYSDLGQIYNMLLLMKKISK
modifications: Bacteriophage G1
With B1 the “interaction with full length STAAU_R12 (growth on SD THAL minus medium)” value (STAAU_R12 [2]) was “found to interact”.

B2: LaminC (pGBKT7LaminC) (other)
chain: MKLLSSIEQACDICRLKKLKCSKEKPKCAKCLKNNWECRYSPKTKRSPLTRAHLTEVESRLERLEQLFLLIFPREDLDMILKMDSLQDIKALLTGLFVQDNVNKDAVTDRLASVETDMPLTLRQHRISATSSSEESSNKGQRQLTVSSEEVVSREVSGIKAAYEAELGDARKTLDSVAKERARLQLELSKVREEFKELKARNTKKEGDLIAAQARLKDLEALLNSKEAALSTALSEKRTLEGELHDLRGQVAKLEAALGEAKKQLQDEMLRRVDAENRLQTMKEELDFQKNIYSEELRETKRRHETRLVEID
B2: no binding [3].

B3: GB-G1ORF67 (other)
chain: MKLKILDKDNATLNVFHRNKEHKTIDNVPTANLVDWYPLSNAYEYKLSRNGEYLELKRLRSTLPSSYGLDDNNQDIIRDNNHRCKIGYWYNPAVRKDNLKIIEKAKQYGLPIITEEYDANTVEQGFRDIGVIFQSLKTIVVTRYLEGKTEEELRIFNMKSEESQLNEALKESDFSVDLTYSDLGQIYNMLLLMKKISK
notes: also called GST-Bio fusion of G1ORF67; GST-tagged G1ORF67
With B3 the TR-FRET signal-to-background (HK-STAAU_R12 [4]) was 30 ratio (to 1).

B4: HB-G1ORF67: G1ORF67 fused N-terminally to 6× Histidine residues and a biotin acceptor domain, purified from E. coli (protein)
chain: MKLKILDKDNATLNVFHRNKEHKTIDNVPTANLVDWYPLSNAYEYKLSRNGEYLELKRLRSTLPSSYGLDDNNQDIIRDNNHRCKIGYWYNPAVRKDNLKIIEKAKQYGLPIITEEYDANTVEQGFRDIGVIFQSLKTIVVTRYLEGKTEEELRIFNMKSEESQLNEALKESDFSVDLTYSDLGQIYNMLLLMKKISK
modifications: left off: small tags and cut ends
notes: G1ORF67 fused N-terminally to 6× Histidine residues and a biotin acceptor domain, purified from E. coli
B4 was tested, and the “interaction with labeled STAAU_R12 probe” value (STAAU_R12 [5]) was “directly interacts with STAAU_R12 in a dose-dependent manner”.

B5: untagged G1ORF67 (other)
chain: MKLKILDKDNATLNVFHRNKEHKTIDNVPTANLVDWYPLSNAYEYKLSRNGEYLELKRLRSTLPSSYGLDDNNQDIIRDNNHRCKIGYWYNPAVRKDNLKIIEKAKQYGLPIITEEYDANTVEQGFRDIGVIFQSLKTIVVTRYLEGKTEEELRIFNMKSEESQLNEALKESDFSVDLTYSDLGQIYNMLLLMKKISK
notes: also called G1ORF67 with GST portion removed by PreScission protease; not shown: the bioti
B5 gave an IC50 (HK-STAAU_R12 [6]) of roughly 30 nM.

B6: G1ORF67 full length fused to the Gal4 DNA-binding domain (G1pGBKORF67) (other)
chain: MKLLSSIEQACDICRLKKLKCSKEKPKCAKCLKNNWECRYSPKTKRSPLTRAHLTEVESRLERLEQLFLLIFPREDLDMILKMDSLQDIKALLTGLFVQDNVNKDAVTDRLASVETDMPLTLRQHRISATSSSEESSNKGQRQLTVSMKLKILDKDNATLNVFHRNKEHKTIDNVPTANLVDWYPLSNAYEYKLSRNGEYLELKRLRSTLPSSYGLDDNNQDIIRDNNHRCKIGYWYNPAVRKDNLKIIEKAKQYGLPIITEEYDANTVEQGFRDIGVIFQSLKTIVVTRYLEGKTEEELRIFNMKSEESQLNEALKESDFSVDLTYSDLGQIYNMLLLMKKISK
B6: no binding [7].
